In data set [1] the target is T1, LcTwinkle (Lates calcarifer, UniProt A0A4W6C5C5, E452Q).
T1 construct: gene TWNK; shorter variant (primase-like NTD + helicase CTD), synthesized gene, modified pET28a, N-terminal His tag cut by PreScission; E. coli BL21(DE3); homo-hexamer (also heptamer)
T1 sequence (A0A4W6C5C5 128-683 E452Q): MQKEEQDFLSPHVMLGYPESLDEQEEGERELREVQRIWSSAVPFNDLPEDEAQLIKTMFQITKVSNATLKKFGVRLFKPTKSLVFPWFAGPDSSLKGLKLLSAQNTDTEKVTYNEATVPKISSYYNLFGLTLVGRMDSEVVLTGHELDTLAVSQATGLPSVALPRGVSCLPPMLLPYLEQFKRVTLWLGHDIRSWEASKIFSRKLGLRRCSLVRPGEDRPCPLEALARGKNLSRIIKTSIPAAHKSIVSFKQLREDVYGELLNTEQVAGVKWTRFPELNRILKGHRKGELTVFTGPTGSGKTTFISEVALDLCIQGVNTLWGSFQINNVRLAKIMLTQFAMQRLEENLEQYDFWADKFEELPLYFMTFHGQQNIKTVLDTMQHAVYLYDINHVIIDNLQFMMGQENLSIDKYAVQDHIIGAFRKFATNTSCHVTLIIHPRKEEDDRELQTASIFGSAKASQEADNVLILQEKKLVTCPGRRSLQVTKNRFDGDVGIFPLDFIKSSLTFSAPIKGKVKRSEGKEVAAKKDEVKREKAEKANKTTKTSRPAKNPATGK
Put plainly: cryo-EM structure of LcTwinkle-ssDNA-ATP complex, […] Å. The format is binding. Particulars: 1 mM ATP, 2 mM MgCl2, pH 8.0, five ATP at the subunit interfaces, one Mg2+ each.

Data set [2] has as its target T2, LcTwinkle (Lates calcarifer, UniProt A0A4W6C5C5).
T2 construct: gene TWNK; shorter variant (primase-like NTD + helicase CTD), synthesized gene, modified pET28a, N-terminal His tag cut by PreScission; E. coli BL21(DE3); homo-hexamer (also heptamer)
T2 sequence (A0A4W6C5C5 128-683): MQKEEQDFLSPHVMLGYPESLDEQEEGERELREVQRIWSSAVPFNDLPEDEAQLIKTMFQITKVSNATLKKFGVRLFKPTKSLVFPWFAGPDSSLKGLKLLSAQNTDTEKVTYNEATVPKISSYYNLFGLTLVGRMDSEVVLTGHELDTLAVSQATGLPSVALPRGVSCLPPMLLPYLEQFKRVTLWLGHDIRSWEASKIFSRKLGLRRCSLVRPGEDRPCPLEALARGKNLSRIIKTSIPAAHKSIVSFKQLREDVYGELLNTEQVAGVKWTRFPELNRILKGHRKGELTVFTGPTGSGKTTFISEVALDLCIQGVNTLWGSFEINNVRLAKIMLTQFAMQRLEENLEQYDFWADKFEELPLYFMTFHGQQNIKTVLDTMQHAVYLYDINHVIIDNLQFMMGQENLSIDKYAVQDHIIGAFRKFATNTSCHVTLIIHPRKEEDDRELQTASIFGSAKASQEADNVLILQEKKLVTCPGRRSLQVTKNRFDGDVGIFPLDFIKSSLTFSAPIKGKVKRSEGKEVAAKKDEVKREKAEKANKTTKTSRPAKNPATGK
Put plainly: [gamma-32P]ATP TLC ATPase assay, Michaelis-Menten fit. The format is biochemical. To be noted: 12 mM MgCl2, 1 uM ssDNA, 150 mM KCl, pH 8.0, 20 °C; labelled compound as tracer.

Data set [3] addresses E325Q LcTwinkle (Lates calcarifer Twinkle helicase, active site mutant) (Lates calcarifer). The experiment in a line: cryo-EM structure; apo (DNA-free) classes found by 3D classification in the same sample prepared with ssDNA and ATP: LcTwinkle6 and LcTwinkle7 (8.5 A).
The target is the same in data set [4]. The experiment in a line: cryo-EM structure; E325Q LcTwinkle with ssDNA (1:1.5), 1 mM ATP, 2 mM MgCl2, 50 mM Tris pH 8.0, 150 mM KCl, 3 mM DTT; DNA-bound classes (LcTwinkle-DNA 3.5 A, LcTwinkle-DNA2 7.5 A).
In data set [5] the target is WT LcTwinkle (Lates calcarifer Twinkle helicase) (Lates calcarifer). Put plainly: negative staining EM; 0.02 mg/ml Twinkle in 50 mM Tris pH 8.0, 150 mM KCl, 3 mM DTT, 1 mM ATP, 2 mM MgCl2, ssDNA at 1:2 relative to hexamers; uranyl acetate; 2D classification.
Data set [6] addresses T3, LcTwinkle R489A (Lates calcarifer, UniProt A0A4W6C5C5 128-683, R616A).
T3 sequence: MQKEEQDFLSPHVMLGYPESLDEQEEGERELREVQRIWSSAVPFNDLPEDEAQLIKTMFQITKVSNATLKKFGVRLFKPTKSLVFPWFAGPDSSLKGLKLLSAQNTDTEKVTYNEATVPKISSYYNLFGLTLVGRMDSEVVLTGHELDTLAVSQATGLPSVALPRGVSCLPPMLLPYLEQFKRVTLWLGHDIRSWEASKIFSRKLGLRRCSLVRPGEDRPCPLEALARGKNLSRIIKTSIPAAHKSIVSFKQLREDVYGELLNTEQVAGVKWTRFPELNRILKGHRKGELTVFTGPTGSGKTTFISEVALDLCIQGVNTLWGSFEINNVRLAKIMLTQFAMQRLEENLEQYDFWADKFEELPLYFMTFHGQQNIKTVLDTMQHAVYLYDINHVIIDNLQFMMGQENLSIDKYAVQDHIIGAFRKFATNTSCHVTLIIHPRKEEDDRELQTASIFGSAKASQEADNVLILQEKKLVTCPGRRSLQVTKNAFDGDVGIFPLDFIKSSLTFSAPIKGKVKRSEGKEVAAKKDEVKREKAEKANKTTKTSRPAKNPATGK
The experiment in a line: fluorescence anisotropy; 0.5 mM ATP, 1 mM Mg2+; FA: 25 mM Tris-HCl pH 8.0, 150 mM KCl, 0.5 mM ATP, 1 mM MgCl2, 20 nM Cy5-ssDNA, temperature not stated; SEC/cryo-EM: 50 mM Tris pH 8.0, 150 mM KCl, 3 mM DTT, 1. Particulars: protein: recombinant; tags: N-terminal His tag, PreScission-cleaved; chain copies: 6; label: 5'-Cy5; single strand.

The target of data set [7] is T4, LcTwinkle R440A (Lates calcarifer, UniProt A0A4W6C5C5 128-683, R567A).
T4 sequence: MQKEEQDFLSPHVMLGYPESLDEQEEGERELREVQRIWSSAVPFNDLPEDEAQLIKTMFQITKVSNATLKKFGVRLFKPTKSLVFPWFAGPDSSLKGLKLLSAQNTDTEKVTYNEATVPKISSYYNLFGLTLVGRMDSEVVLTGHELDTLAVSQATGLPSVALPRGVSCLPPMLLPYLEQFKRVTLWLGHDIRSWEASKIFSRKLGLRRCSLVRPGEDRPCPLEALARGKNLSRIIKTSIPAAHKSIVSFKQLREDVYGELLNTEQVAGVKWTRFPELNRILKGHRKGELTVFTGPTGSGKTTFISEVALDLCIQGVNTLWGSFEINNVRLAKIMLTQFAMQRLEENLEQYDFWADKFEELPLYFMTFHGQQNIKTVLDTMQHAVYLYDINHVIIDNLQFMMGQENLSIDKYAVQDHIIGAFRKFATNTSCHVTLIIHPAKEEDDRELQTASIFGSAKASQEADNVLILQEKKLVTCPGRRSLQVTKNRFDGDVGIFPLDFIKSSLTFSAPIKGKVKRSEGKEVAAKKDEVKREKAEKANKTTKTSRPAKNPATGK
Described as above. Particulars: protein: recombinant; tags: N-terminal His tag, PreScission-cleaved; chain copies: 6; label: 5'-Cy5; single strand.

In data set [8] the target is T5, LcTwinkle H438A (Lates calcarifer, UniProt A0A4W6C5C5 128-683, H565A).
T5 sequence: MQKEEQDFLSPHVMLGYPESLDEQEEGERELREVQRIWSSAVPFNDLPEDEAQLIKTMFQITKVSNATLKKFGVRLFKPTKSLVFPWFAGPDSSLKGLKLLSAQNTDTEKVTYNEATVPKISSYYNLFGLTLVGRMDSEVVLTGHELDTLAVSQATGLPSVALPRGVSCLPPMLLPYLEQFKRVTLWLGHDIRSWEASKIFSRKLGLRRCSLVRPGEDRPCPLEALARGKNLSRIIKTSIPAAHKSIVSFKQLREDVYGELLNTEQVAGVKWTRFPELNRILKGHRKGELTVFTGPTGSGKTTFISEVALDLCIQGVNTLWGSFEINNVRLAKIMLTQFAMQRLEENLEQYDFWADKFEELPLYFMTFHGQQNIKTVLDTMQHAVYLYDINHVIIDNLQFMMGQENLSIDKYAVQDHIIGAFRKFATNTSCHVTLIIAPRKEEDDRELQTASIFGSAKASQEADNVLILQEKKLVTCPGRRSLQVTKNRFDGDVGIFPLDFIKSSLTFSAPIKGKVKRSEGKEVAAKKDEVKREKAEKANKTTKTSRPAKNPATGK
The data set is described as above. Particulars: protein: recombinant; tags: N-terminal His tag, PreScission-cleaved; chain copies: 6; label: 5'-Cy5; single strand.

Data set [9] has as its target T6, LcTwinkle S456A (Lates calcarifer, UniProt A0A4W6C5C5 128-683, S583A).
T6 sequence: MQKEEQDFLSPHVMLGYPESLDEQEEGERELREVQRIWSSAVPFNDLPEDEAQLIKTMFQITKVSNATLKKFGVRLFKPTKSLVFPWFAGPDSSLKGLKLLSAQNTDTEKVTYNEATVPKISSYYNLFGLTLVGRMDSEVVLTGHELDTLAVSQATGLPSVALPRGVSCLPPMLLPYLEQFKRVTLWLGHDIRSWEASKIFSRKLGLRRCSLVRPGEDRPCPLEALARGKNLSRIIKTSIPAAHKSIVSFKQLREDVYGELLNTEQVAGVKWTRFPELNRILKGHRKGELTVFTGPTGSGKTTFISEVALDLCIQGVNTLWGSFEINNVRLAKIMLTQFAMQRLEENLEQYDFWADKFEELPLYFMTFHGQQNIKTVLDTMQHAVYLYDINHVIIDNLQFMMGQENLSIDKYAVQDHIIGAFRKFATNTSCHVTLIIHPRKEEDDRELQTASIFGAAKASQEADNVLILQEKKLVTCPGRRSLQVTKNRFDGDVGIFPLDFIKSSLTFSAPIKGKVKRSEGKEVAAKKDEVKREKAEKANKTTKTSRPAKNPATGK
The description is as above. Particulars: protein: recombinant; tags: N-terminal His tag, PreScission-cleaved; chain copies: 6; label: 5'-Cy5; single strand.

The target in data set [10] is T7, LcTwinkle E325Q (Lates calcarifer, UniProt A0A4W6C5C5 128-683, E452Q).
T7 sequence: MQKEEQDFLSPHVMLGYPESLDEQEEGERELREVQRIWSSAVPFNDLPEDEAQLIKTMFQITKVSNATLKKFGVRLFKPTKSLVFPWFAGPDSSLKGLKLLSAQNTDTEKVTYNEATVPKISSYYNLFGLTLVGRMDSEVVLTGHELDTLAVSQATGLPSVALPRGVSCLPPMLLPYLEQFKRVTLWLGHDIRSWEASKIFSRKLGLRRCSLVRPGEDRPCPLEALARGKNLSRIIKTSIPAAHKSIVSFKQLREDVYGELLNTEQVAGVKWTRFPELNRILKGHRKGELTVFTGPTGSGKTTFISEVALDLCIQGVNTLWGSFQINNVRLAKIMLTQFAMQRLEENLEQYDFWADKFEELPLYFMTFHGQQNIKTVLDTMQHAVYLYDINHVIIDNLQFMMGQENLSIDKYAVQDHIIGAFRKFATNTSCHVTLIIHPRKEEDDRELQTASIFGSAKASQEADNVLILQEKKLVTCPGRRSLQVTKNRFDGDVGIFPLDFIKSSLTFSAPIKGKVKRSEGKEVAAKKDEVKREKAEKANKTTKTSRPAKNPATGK
The experiment in a line: cryo-EM structure (3.5 A); 1 mM ATP, 2 mM Mg2+; FA: 25 mM Tris-HCl pH 8.0, 150 mM KCl, 0.5 mM ATP, 1 mM MgCl2, 20 nM Cy5-ssDNA, temperature not stated; SEC/cryo-EM: 50 mM Tris pH 8.0, 150 mM KCl, 3 mM DTT, 1. Particulars: protein: recombinant; tags: N-terminal His tag, PreScission-cleaved; chain copies: 6; single strand.

Several values for one entry are separate records, joined by “and”; a condition that tells them apart may be missing. Equal values may be shown once.

For the molecule `Nc1ncnc2c1ncn2[C@@H]1O[C@H](COP(=O)(O)OP(=O)(O)OP(=O)(O)O)[C@@H](O)[C@H]1O` [ATP], the “cryo-EM structure of LcTwinkle-ssDNA-ATP complex, 3.5 Å” value in data set [1] was “ATPase sites are located at each of the subunit interfaces (Figure 2A), and five ATP molecules”. Besides, the KM result in data set [2] is recorded as “The data were fitted to Michaelis–Menten equation with GraphPad”.

By stoichiometry N is commonly meant the number of molecules, sites or subunits per partner or assembly. In the case of “E325Q LcTwinkle (Lates calcarifer Twinkle helicase, active site mutant) (enzyme)”, the stoichiometry N in data set [3] was 6 and 7; in data set [4], 6.

For “WT LcTwinkle (Lates calcarifer Twinkle helicase) (enzyme)”, the stoichiometry N in [5] was 6 and 7.

With GGATTATTTACATTGGCAGATTCACC (ssDNA) [Cy5-ssDNA], the binding result in [6], in data set [7], in data set [8] and in [9] was “no binding” throughout.

Take TGGTCTTTTTTTTTTTTTTTTTTTTTTTTT (ssDNA) [TGGTC-oligo(dT) ssDNA]: in data set [10], the binding result is reported as “binds”.

The values are drawn from article PMC9723800, “Structural and dynamic basis of DNA capture and translocation by mitochondrial Twinkle helicase” (Nucleic Acids Research, 2022).
